Legend:
[1] = target: nsp12 (RdRp catalytic subunit, Sf9);nsp7;nsp8 (SARS-CoV-2;SARS-CoV-2;SARS-CoV-2, UniProt P0DTD1;P0DTD1;P0DTD1 4393-5324;3860-3942;3943-4140, ||); assay: EMSA; conditions: protein: recombinant;recombinant;recombinant; tags: 6xHis (Results: C-terminal; Methods: His tag after 5' ATG);6xHis (Results: C-terminal; legend: His6-nsp7);6xHis (Results: C-terminal; legend: His6-nsp8); copies: 1;1;2; label: 5'-biotin on strand 1 (S1); 5' overhang 10 nt (U10) on strand 2
[2] = target: nsp12 (RdRp catalytic subunit, Sf9) (SARS-CoV-2, UniProt P0DTD1 4393-5324); assay: EMSA; nsp12 alone; conditions: protein: recombinant; tags: 6xHis (Results: C-terminal; Methods: His tag after 5' ATG); label: 5'-biotin on strand 1 (S1); 5' overhang 10 nt (U10) on strand 2

B1: S1*/S2 RNA primer/template (dsRNA)
RNA 1: GCUAUGUGAGAUUAAGAAUU
RNA 2: UUUUUUUUUUAAUUCUUAAUCUCACAUAGC
Q: Does B1 bind [1]?
A: Result: binds

Q: Does B1 bind [2]?
A: Result: binds

From paper PMC9021610
